Ki and efficiency data for three molecules are collected here from patent US20120258099A1.

For test [1], the target named is MBP-Tgat (aa 1-255) (UniProt O75962). Put plainly: FRET mant-GTP nucleotide exchange kinetics; kobs against GST-TRIP peptide concentration (up to 100 µM), hyperbolic fit; RhoA 1 µM, Tgat 0.5 µM.
For test [2] the target is unchanged. The test is described as follows: cell-based or functional assay.

What is called Ki is a dissociation constant, usually derived from enzyme kinetics or from competition with a known ligand.

Where a chain is given by its changes, count along the chain named. Ends that are not written are not given here. GST = glutathione S-transferase tag encoded by vector pGEX-5X2

B1: GST-TRIPα (peptide, not shown: a dimerising Fc or GST)
chain: {GST}-AREGADGAICGYNLATLVMLGPSERVFCPLCEPCSSDIYELM
modifications: cysteine pairing not given here; also: fused to GST, GST carrier and linker letters not given here
B1: in test [1], the Ki came to 89 µM.

B2: GST-TRIPE32G (peptide, not shown: a dimerising Fc or GST; large carriers; small tags and cut ends)
peptide: AREGADGAICGYNLATLVMLGPSERVFCPLCGPCSSDIYELM
modifications: not fully specified (N-terminus); cysteine pairing not given here; also: fused to GST, GST carrier and linker letters not given here
Consider B2, for which, in test [2], the efficiency at inhibiting the exchange activity of Tgat, against TRIPα was found to be 15 fold. The same molecule came in with a Ki in test [1] of 7.4 µM.

B3: GST-TRIPT16M/L17S (peptide, not shown: a dimerising Fc or GST; large carriers; small tags and cut ends)
peptide: B2 peptide with T16M, L17S, G32E
modifications: not fully specified (N-terminus); cysteine pairing not given here; also: fused to GST, GST carrier and linker letters not given here
Turning to B3, the efficiency at inhibiting the exchange activity of Tgat, against TRIPα in test [2] was 15 fold. The molecule further gave an inhibition constant (Ki) in test [1] of 5.1 µM.
